Reference: paper PMC11382572, “Structural and kinetic insights into the stereospecific oxidation of R-2,3-dihydroxypropanesulfonate by DHPS-3-dehydrogenase from Cupriavidus pinatubonensis” (Chemical Science, 2024)

Key:
[1] = system: O=S(=O)(O)C[C@H](O)CO; experiment: Michaelis-Menten kinetics (apparent KM); type: biochemical, Cupriavidus pinatubonensis; settings: Zn2+, NAD+
[2] = system: O=S(=O)(O)C[C@H](O)CO; experiment: purified protein; type: biochemical, Cupriavidus pinatubonensis; settings: Zn2+

“DHPS-3-dehydrogenase (CpHpsN) (Cupriavidus pinatubonensis JMP134; E318A)” was tested, and the Km [1] was 2800 ± 300 µM and the kcat/Km [1] was 1.8 M⁻¹ s⁻¹.

“DHPS-3-dehydrogenase (CpHpsN) (Cupriavidus pinatubonensis JMP134; H319A)” showed a Km [2] of 1200 ± 300 µM and a kcat/Km ([2]; NADH active site, sulfonate and secondary hydroxyl groups participate in octahedral zinc coordination, occupancy […]) of 3.1 M⁻¹ s⁻¹.
